Data on three molecules can be found in patent US6410775.

For test [1], the target named is ACA-6501 aPL antibody. Description: aPL antibody binding of modified 3B10 peptides.
The target in test [2] is ACA-6501 aPL antibody. Description: competitive ELISA on plate-bound tetravalent 3B10, ACA-6501 serum.
Test [3] deals with ACA-6501 aPL antibody. Description: competitive ELISA on plate-bound tetravalent 3B10.
The target in test [4] is ACA-6701 aPL antibody. The experiment in a line: competitive ELISA, ACA serum on cardiolipin/β2-GPI-coated plates.
The target of test [5] is ACA-6638 aPL antibody. The test is described as above.
Test [6] has as its target ACA-7005 aPL antibody. The description is as above.
Test [7] addresses ACA-6635 aPL antibody. Described as above.
In test [8] the target is ACA-6501 aPL antibody. Described as above.
In test [9] the target is ACA-6903 aPL antibody. The description is as above.
Test [10] has as its target ACA-7004 aPL antibody. Described as above.
The target in test [11] is ACA-6626 aPL antibody. The description is as above.
Test [12] concerns the target ACA-6641 aPL antibody. The description is as above.
Test [13] concerns the target ACA-6501 aPL antibody. Description: competitive ELISA I50; antibody not given, ACA-6501 serum on CL/β2-GPI assumed (Ex. 4B).
Test [14] addresses ACA-6701 aPL antibody. Description: competitive ELISA on CL/β2-GPI plates, peptide monomer 1 mg/mL, affinity-purified ACA.
For test [15], the target named is ACA-6638 aPL antibody. Described as above.
The target of test [16] is ACA-7005 aPL antibody. Described as above.
Test [17] concerns the target ACA-6501 aPL antibody. The description is as above.
Test [18] concerns the target ACA-6903 aPL antibody. Described as above.
For test [19], the target named is ACA-7004 aPL antibody. The description is as above.
The target of test [20] is ACA-6626 aPL antibody. Described as above.
Test [21] has as its target ACA-6641 aPL antibody. The test is described as above.
Test [22] addresses ACA-6644 aPL antibody. The test is described as above.
Test [23] concerns the target ACA sera [1]-[10] of Table 7. The experiment in a line: competitive ELISA; mean ± sd over the ten ACA sera.
In test [24] the target is ACA-6701 aPL antibody. The experiment in a line: competitive ELISA, peptide at 1.8 mg/mL; members from Table 7.
The target in test [25] is ACA-6638 aPL antibody. The description is as above.
Test [26] concerns the target ACA-7005 aPL antibody. Described as above.
Test [27] addresses ACA-6635 aPL antibody. The test is described as above.
Test [28] addresses ACA-6501 aPL antibody. The description is as above.
The target of test [29] is ACA-6903 aPL antibody. Described as above.
The target in test [30] is ACA-7004 aPL antibody. The description is as above.
Test [31] has as its target ACA-6626 aPL antibody. Described as above.
Test [32] addresses ACA-6641 aPL antibody. Described as above.
The target in test [33] is ACA-6644 aPL antibody. The test is described as above.
Test [34] addresses nine affinity purified ACA antibodies. Description: competitive ELISA on CL/β2-GPI plates, peptide monomer 1 mg/mL; average of nine ACA.
The target in test [35] is ACA-6644 aPL antibody. The experiment in a line: competitive ELISA, ACA serum (printed 664) on cardiolipin/β2-GPI-coated plates.

Values joined by “and” are separate entries in the source; they are usually repeats but may differ in a detail not shown here. Equal values may be shown once. Square brackets hold non-standard residues; d marks the D form. Ends that are not written are not given here. αMeP = C[C@@]1(C(=O)O)CCCN1 A value given as a limit tells only on which side of the number the result lay.

For the molecule AGPCLLLA[αMeP]DRCPG (cysteine pairing not given here) [peptide 727 (3B10 with αMe-Pro at the 9 position)], the fold enhancement in immunoreactivity against 3B10 in the test with ACA-6501 aPL antibody [1] worked out at 6 fold. This molecule registered a fold increase in activity against native 3B10 in the test with ACA-6501 aPL antibody [2] of 4 fold.
In the test with ACA-6501 aPL antibody [3], PCLLLAPDRCPG [peptide 139 (3B10 lacking the framework Ala-Gly at the amino terminus)] showed a fold increase of the 50% inhibition concentration against peptide 142 of 8 fold.
As to AGPCLGVLGKLCPG [peptide ACA-6641/3G3 … (LJP 688)], the IC50 was 1070 µg/mL with ACA-6701 aPL antibody [4]; 810 µg/mL with ACA-6638 aPL antibody [5]; 750 µg/mL in the test with ACA-7005 aPL antibody [6]; 1000 µg/mL with ACA-6635 aPL antibody [7]; 890 µg/mL and 1100 µg/mL with ACA-6501 aPL antibody [8]; 800 µg/mL with ACA-6903 aPL antibody [9]. The IC50 with ACA-7004 aPL antibody [10] is 670 µg/mL; with ACA-6626 aPL antibody [11], 1090 µg/mL; with ACA-6641 aPL antibody [12], 890 µg/mL and 510 µg/mL; with ACA-6501 aPL antibody [13], 850 µg/mL; in test [23], 860 µg/mL; with ACA-6644 aPL antibody [35] it was 760 µg/mL. In addition, the percent inhibition with ACA-6701 aPL antibody [14] worked out at 100%; in the test with ACA-6638 aPL antibody [15], 100%; with ACA-7005 aPL antibody [16], 95%; in the test with ACA-6501 aPL antibody [17], 86%; with ACA-6903 aPL antibody [18], 100%; with ACA-7004 aPL antibody [19], 100%. The percent inhibition is 100% with ACA-6626 aPL antibody [20]; 93% with ACA-6641 aPL antibody [21]; 100% with ACA-6644 aPL antibody [22]; > 80% with ACA-6701 aPL antibody [24]; > 80% with ACA-6638 aPL antibody [25]; > 80% with ACA-7005 aPL antibody [26]. In addition, the percent inhibition in the test with ACA-6635 aPL antibody [27] was > 80%; in the test with ACA-6501 aPL antibody [28] it was 80%; with ACA-6903 aPL antibody [29] it was > 80%; with ACA-7004 aPL antibody [30] it was > 80%; in the test with ACA-6626 aPL antibody [31], > 80%; with ACA-6641 aPL antibody [32], > 80%. In the test with ACA-6644 aPL antibody [33], the percent inhibition is > 80%. Moreover, the percent inhibition (Ave.) in [34] was found to be 97%.
